The values below are quoted from earlier work in paper PMC7287924.

The pKd is the Kd on a negative log10 scale, so that one unit is a factor of ten.

pKd: −log10 of the molar value.

The target of this data set is CD47 (Homo sapiens) (UniProt Q08722).
CD47 (Homo sapiens), sequence (Q08722 19-323): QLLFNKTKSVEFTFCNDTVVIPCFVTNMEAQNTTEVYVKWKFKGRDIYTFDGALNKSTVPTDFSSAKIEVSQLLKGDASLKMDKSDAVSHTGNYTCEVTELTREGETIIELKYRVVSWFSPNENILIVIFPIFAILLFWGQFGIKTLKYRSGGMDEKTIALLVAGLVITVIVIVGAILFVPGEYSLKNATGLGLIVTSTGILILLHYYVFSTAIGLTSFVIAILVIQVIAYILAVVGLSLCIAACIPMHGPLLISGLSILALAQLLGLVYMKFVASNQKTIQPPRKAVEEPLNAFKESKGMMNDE

TSP1, sequence (P07996 19-1170): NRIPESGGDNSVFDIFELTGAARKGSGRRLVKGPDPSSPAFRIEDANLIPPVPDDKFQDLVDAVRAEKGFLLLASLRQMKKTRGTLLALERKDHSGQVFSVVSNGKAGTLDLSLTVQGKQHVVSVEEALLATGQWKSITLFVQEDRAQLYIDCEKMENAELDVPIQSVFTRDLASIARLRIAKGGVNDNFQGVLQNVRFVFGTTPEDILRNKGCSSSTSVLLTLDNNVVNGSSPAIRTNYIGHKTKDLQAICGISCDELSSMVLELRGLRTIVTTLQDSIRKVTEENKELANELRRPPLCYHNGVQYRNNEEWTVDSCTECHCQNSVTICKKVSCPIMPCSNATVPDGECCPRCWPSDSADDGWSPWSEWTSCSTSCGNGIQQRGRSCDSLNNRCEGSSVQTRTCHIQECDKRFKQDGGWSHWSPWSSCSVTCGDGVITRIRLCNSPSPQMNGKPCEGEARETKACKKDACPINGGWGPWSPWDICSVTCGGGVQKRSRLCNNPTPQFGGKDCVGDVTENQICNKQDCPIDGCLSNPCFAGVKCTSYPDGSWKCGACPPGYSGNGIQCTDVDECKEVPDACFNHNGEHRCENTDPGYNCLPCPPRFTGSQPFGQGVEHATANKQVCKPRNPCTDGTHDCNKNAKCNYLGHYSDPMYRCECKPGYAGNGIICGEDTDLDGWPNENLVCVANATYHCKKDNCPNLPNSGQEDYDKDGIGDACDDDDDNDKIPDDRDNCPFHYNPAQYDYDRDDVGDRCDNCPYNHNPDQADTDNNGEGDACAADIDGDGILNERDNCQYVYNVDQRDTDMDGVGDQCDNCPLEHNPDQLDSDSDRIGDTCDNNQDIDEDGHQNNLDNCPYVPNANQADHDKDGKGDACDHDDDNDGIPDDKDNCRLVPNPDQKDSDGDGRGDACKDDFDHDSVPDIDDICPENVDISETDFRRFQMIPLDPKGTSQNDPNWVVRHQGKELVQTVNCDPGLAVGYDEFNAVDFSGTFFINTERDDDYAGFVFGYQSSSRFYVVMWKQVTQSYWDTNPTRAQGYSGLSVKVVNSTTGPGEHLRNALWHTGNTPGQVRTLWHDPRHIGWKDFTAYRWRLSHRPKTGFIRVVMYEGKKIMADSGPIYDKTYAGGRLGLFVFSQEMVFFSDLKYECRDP

Take TSP1 (from UniProt P07996): the pKd was 11.00.
